Experimental data published in patent publication US20220170038A1 (COMMONWEALTH SCIENTIFIC INDUSTRIAL RESEARCH ORGANISATION, published 2022).

B1: scar9::GG::NifU::TS (MPP-processed product of the MTP-FAγ51::NifU::TwinStrep fusion polypeptide encoded by SN166) (other)
chain: not shown
notes: Expressed in N. benthamiana leaves with mitochondrial targeting; N-terminal analysis and the tryptic peptide ISTQVVR confirmed cleavage at the intended MPP site; SEC indicated a heterotetramer of 2 NifS and 2 NifU; also called scar9-NifU::TS; scar9-NifU-TwinStrep

Tests used:
[1] = target: T1, scar9::GG::NifS::HA (MPP-processed product of the MTP-FAγ51::NifS::HA fusion polypeptide encoded by SN31) (Klebsiella oxytoca, UniProt P05344 1-397); experiment: StrepTactinXT pull-down of NifU::TS from leaves co-infiltrated with SN31 and SN166, first purification; anti-Strep and anti-HA Western blots
T1 construct: This processed form was the one found in the eluate with NifU::TS; also called scar9-NifS::HA; processed NifS
T1 sequence: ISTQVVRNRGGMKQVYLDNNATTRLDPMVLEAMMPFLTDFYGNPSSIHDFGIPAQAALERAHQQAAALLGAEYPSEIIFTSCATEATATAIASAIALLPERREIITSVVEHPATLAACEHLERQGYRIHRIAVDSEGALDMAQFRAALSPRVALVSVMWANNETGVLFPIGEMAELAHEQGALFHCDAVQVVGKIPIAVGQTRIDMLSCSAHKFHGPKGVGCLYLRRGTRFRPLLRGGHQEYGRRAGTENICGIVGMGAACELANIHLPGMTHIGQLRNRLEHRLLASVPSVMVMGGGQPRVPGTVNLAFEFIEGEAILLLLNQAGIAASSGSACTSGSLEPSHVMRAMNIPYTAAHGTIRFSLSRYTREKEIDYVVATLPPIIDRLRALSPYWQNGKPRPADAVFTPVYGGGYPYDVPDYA

[2] = target: T2, scar9::GG::NifU::HA (MPP-processed product of the MTP-FAγ51::NifU::HA fusion polypeptide encoded by SN32) (Klebsiella oxytoca, UniProt P05343 1-274); experiment: StrepTactinXT pull-down of NifS::TS from leaves co-infiltrated with SN231 and SN32; anti-Strep and anti-HA Western blots
T2 construct: also called scar9::NifU::HA; processed NifU
T2 sequence: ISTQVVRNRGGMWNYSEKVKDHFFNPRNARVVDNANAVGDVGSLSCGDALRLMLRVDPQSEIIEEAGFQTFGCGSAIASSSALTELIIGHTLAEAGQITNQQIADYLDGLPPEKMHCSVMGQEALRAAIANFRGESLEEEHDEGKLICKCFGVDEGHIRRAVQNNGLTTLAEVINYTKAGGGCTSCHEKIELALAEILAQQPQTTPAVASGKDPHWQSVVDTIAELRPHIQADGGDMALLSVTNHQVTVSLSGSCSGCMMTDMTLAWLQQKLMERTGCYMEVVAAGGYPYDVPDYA

[3] = target: B1; experiment: StrepTactinXT pull-down of NifU::TS from N. benthamiana leaves co-infiltrated with SN31 and SN166, anaerobic non-denaturing extraction; anti-HA Western blot of the eluate

Binder: B1
- binding result [1]: binds

B2: scar9::NifS::TS (MPP-processed product of the MTP-FAγ51::NifS::TwinStrep fusion polypeptide encoded by SN231) (enzyme)
chain: not shown
notes: Bait in the reverse pull-down; the text names scar9::NifS::TS in the eluate; also called MTP-FAγ51::NifS::TS
- binding result [2]: binds

B3: MTP-FAγ51::NifS::HA fusion polypeptide encoded by SN31, unprocessed form (enzyme)
chain: MMAMAVFRREGRRLLPSIAARPIAAIRSPLSSDQEEGLLGVRSISTQVVRNRGGMKQVYLDNNATTRLDPMVLEAMMPFLTDFYGNPSSIHDFGIPAQAALERAHQQAAALLGAEYPSEIIFTSCATEATATAIASAIALLPERREIITSVVEHPATLAACEHLERQGYRIHRIAVDSEGALDMAQFRAALSPRVALVSVMWANNETGVLFPIGEMAELAHEQGALFHCDAVQVVGKIPIAVGQTRIDMLSCSAHKFHGPKGVGCLYLRRGTRFRPLLRGGHQEYGRRAGTENICGIVGMGAACELANIHLPGMTHIGQLRNRLEHRLLASVPSVMVMGGGQPRVPGTVNLAFEFIEGEAILLLLNQAGIAASSGSACTSGSLEPSHVMRAMNIPYTAAHGTIRFSLSRYTREKEIDYVVATLPPIIDRLRALSPYWQNGKPRPADAVFTPVYGGGYPYDVPDYA
notes: Present in the soluble input sample but not detected in the eluate; also called unprocessed NifS; unprocessed MTP-FAγ51::NifS
- binding result [3]: no binding
